The experiment has as its target ubiquitin polyprotein composed of nine identical repeats (Ubi)9 (UniProt P0CG48 1-76). The experiment in a line: extended unfolded state at 170 pN force (single-molecule force spectroscopy).

The koff is a measure of how fast the partners let go of each other.

Chain of ubiquitin polyprotein composed of nine identical repeats (Ubi)9 (P0CG48 1-684): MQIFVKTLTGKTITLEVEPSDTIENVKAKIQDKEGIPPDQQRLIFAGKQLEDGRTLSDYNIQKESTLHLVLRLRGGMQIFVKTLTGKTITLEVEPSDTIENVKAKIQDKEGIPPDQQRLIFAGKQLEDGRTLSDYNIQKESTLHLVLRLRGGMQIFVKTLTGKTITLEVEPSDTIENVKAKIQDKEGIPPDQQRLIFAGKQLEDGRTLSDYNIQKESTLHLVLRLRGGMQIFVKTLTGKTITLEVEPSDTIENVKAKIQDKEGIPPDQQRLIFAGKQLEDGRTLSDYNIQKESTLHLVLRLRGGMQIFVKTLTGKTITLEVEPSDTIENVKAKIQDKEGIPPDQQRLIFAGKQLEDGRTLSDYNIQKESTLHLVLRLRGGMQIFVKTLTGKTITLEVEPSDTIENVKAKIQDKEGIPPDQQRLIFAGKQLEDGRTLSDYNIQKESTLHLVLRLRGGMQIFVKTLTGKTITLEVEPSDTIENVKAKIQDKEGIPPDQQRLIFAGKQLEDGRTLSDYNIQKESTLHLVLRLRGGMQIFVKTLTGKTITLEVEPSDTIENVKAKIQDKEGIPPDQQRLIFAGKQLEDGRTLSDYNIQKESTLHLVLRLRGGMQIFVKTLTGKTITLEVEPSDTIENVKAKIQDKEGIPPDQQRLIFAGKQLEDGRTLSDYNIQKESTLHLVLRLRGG

B1: DnaJ (Hsp40) (natural protein)
chain: MAKQDYYEILGVSKTAEEREIRKAYKRLAMKYHPDRNQGDKEAEAKFKEIKEAYEVLTDSQKRAAYDQYGHAAFEQGGMGGGGFGGGADFSDIFGDVFGDIFGGGRGRQRAARGADLRYNMELTLEEAVRGVTKEIRIPTLEECDVCHGSGAKPGTQPQTCPTCHGSGQVQMRQGFFAVQQTCPHCQGRGTLIKDPCNKCHGHGRVERSKTLSVKIPAGVDTGDRIRLAGEGEAGEHGAPAGDLYVQVQVKQHPIFEREGNNLYCEVPINFAMAALGGEIEVPTLDGRVKLKVPGETQTGKLFRMRGKGVKSVRGGAQGDLLCRVVVETPVGLNERQKQLLQELQESFGGPTGEHNSPRSKSFFDGVKKFFDDLTR
Regarding B1, the koff was 0.0458 s⁻¹.

For the origin of these results see publication PMC5817926 (2018).
